Each block holds one molecule with its values, some of them ahead of it.
Columns and labels:
[1] = target: SmMTAP S12T/N87T double mutant (Schistosoma mansoni); assay: crystal structure
[2] = target: SmMTAP Q289L mutant (Schistosoma mansoni); assay: crystal structure
[3] = target: T1, SmMTAP (Schistosoma mansoni, UniProt I0B503); assay: X-ray crystal structure; format: binding
T1 construct: trimer; adult worm cDNA, corrected 3' end versus gene model Smp_028190
T1 sequence (I0B503 1-299): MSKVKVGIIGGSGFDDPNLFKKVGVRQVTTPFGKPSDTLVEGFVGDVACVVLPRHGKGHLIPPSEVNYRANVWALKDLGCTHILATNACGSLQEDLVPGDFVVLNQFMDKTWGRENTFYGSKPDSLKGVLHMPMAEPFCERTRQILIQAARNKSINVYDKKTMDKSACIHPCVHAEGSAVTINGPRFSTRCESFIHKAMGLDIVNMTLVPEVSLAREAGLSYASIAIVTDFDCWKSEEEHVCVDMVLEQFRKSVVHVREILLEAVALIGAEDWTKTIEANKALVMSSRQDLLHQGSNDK

[4] = target: SmMTAP N87T mutant (Schistosoma mansoni); assay: crystal structure
[5] = target: SmMTAP S12T mutant (Schistosoma mansoni); assay: crystal structure
[6] = target: Schistosoma mansoni 5'-deoxy-5'-methylthioadenosine phosphorylase, wild type (Schistosoma mansoni); assay: crystal structure; hanging drop at 18°C, 100 mM Bis-tris or MES pH 6.1-6.7, 14-18% PEG 3350, protein 6 mg/mL; apo or with adenine, MTA, tubercidin, sulphate; one or two trimers in the asymmetric unit
[7] = substrate: O=P(O)(O)O; assay: purified protein; conditions: 100 mM Hepes pH 7.4, room temperature, nucleoside co-substrate not stated
[8] = substrate: CSC[C@H]1O[C@@H](n2cnc3c(N)ncnc32)[C@H](O)[C@@H]1O; assay: xanthine oxidase coupled assay, A305; format: biochemical, Schistosoma mansoni; conditions: 100 mM potassium phosphate pH 7.4, room temperature
Excerpt: (§1) xanthine oxidase coupled assay, A305 on SmMTAP

[9] = substrate: Nc1ncnc2c1ncn2[C@@H]1O[C@H](CO)[C@@H](O)[C@H]1O; assay: xanthine oxidase coupled assay, A305; format: biochemical, Schistosoma mansoni; conditions: 100 mM potassium phosphate pH 7.4, room temperature
Excerpt: as §1

[10] = substrate: Nc1ncnc2c1ncn2[C@H]1C[C@H](O)[C@@H](CO)O1; assay: xanthine oxidase coupled assay, A305; format: biochemical, Schistosoma mansoni; conditions: 100 mM potassium phosphate pH 7.4, room temperature
Excerpt: as §1

Molecule: SmMTAP S12T/N87T double mutant (enzyme)
stoichiometry N [1]: 3

Molecule: SmMTAP Q289L mutant (enzyme)
stoichiometry N [2]: 3

Molecule: Nc1ncnc2[nH]cnc12 [adenine]
X-ray crystal structure ([3]; base binding site, grown at pH 6.1-6.7, PEG 3350): the only WT structure whose BBS are all occupied is the orthorhombic SmMTAP adenine complex

Molecule: SmMTAP N87T mutant (enzyme)
stoichiometry N [4]: 3

Molecule: SmMTAP S12T mutant (enzyme)
stoichiometry N [5]: 3

Molecule: Nc1ncnc2c1ccn2[C@@H]1O[C@H](CO)[C@@H](O)[C@H]1O [tubercidin]
X-ray crystal structure ([3]; active site, crystals grown with 5 mM ligand): In the MTAP tubercidin complex, all of the active sites are occupied

stoichiometry N [6]: 3
Molecule: Schistosoma mansoni 5'-deoxy-5'-methylthioadenosine phosphorylase, wild type (enzyme)

B1: SmMTAP (Schistosoma mansoni) (protein)
chain: MSKVKVGIIGGSGFDDPNLFKKVGVRQVTTPFGKPSDTLVEGFVGDVACVVLPRHGKGHLIPPSEVNYRANVWALKDLGCTHILATNACGSLQEDLVPGDFVVLNQFMDKTWGRENTFYGSKPDSLKGVLHMPMAEPFCERTRQILIQAARNKSINVYDKKTMDKSACIHPCVHAEGSAVTINGPRFSTRCESFIHKAMGLDIVNMTLVPEVSLAREAGLSYASIAIVTDFDCWKSEEEHVCVDMVLEQFRKSVVHVREILLEAVALIGAEDWTKTIEANKALVMSSRQDLLHQGSNDK
notes: trimer; adult worm cDNA, corrected 3' end versus gene model Smp_028190
Km [7]: 65.58 ± 4.69 µM | Vmax [7]: 0.0358 µM/min | kcat [7]: 478 s⁻¹ | kcat/Km [7]: 7.28e+06 M⁻¹ s⁻¹ | Km [8]: 3.63 ± 0.14 µM | Vmax [8]: 0.0666 µM/min | kcat [8]: 444 ± 5.72 s⁻¹ | kcat/Km [8]: 1.22e+08 ± 4.97e+06 M⁻¹ s⁻¹ | Km [9]: 3.14 ± 0.16 µM | Vmax [9]: 0.0501 µM/min | kcat [9]: 334 ± 6.84 s⁻¹ | kcat/Km [9]: 1.06e+08 ± 5.84e+06 M⁻¹ s⁻¹ | Km [10]: 3.97 ± 0.41 µM | Vmax [10]: 0.0841 µM/min | kcat [10]: 224 ± 11.3 s⁻¹ | kcat/Km [10]: 5.65e+07 ± 6.49e+06 M⁻¹ s⁻¹

— publication PMC5147791 (PLoS Neglected Tropical Diseases, 2016)
